The source of these data is the DeepSol protein solubility set.

This data set in a line: soluble on expression in E. coli; label from the status in PepcDB or PDB records.
For the sequence “MNKNLHPIFAKRIQQVLDENGWSMADLSRRVMLSHTSVRKWASGTSVASGERLKRLSAVTGRPEYWFFMEPGDESEGERAEPKPRVLDEKEETLLSLFNQLPEAEKLRVILHTKAVLQEMDLLKNNVFDLINDLKK”, the “soluble on expression in E. coli” value was “not soluble”. The same measure for “MIVSFKCVHTRYLFLQGKTRLWPSIKSVAERKLAMLDAATSILDLRSPPGNRLEALDGSRSGQYSVRINAPFRICFVWSINGPEDVEIVDYH”: “not soluble”; for “TTNLFGFGIDAESRLDLNSKDMTPEKKAKAESETKRLQEFIRYANLDEGTETVFQNIIEDQEKTGNGYIEVLRDGKGQPVELVHCDSQYIRVCKKTEPVEVGYTIMEKGEPVNILRNKRFRKFVQIIDEKKVWFKEYGDPRIMDSTNGNYVEESELESKEFRDATEIIHFKIGTSAYGVPRWIGNVVSLYGARKAEELNLLYFVNGRHVPAAVVVQGGLLDEDAYNNLEEYMKGVSGTENAYQFLVLEVQGEEITNANGDKNLSDVKVEIKSLADMIQKDAMFLEYDATHRKKMRSSFRLPPIYTGEADEYNKATAETARKTTEEQVFQPMRRKLARKINGAFLEALDISEAKLVLKSPDLTDIASISNAIYPFISAASVIPNDLRPMLE”: “not soluble”; for “AIASDEPKLSERSLHKFENVRIIIKDENKTCFQGELNIGEDWFCLLSEIDPSNSLRVNAKDLLLHAICQRDEHCEKPSIYCQVQGESDEDQYETIYIVPEESSQVEKIFETFCDLVRRTPVPLTDEEGSDGEWYGNVPWSVGNCDSEQFEDAEETDTQL”: “soluble”. The same measure for “MGKKMVVALGGNAILSNDASAHAQQQALVQTSAYLVHLIKQGHRLIVSHGNGPQVGNLLLQQQAADSEKNPAMPLDTCVAMTQGSIGYWLSNALNQELNKAGIKKQVATVLTQVVVDPADEAFKNPTKPIGPFLTEAEAKEAMQAGAIFKEDAGRGWRKVVPSPKPIDIHEAETINTLIKNDIITISCGGGGIPVVGQELKGVEAVIDKDFASEKLAELVDADALVILTGVDYVCINYGKPDEKQLTNVTVAELEEYKQAGHFAPGSMLPKIEAAIQFVESQPNKQAIITSLENLGSMSGDEIVGTVVTK”: “soluble”; for “MEENTEQRVDLTLFSEKIQELKDQIASVIVGQEQTVDLVLAAILANGHVLIEGVPGVAKTLLARLTARLIDADFSRIQFTPDLMPSDVLGTTVFNMKTNDFDFHQGPIFADIVLVDEINRAPAKTQAALFEVMEERQISIDGITHKMGELYTILATQNPVEQEGTYKLPEAQLDRFLMKITMDYPSLEEEVDILERHHTNASLIKLDDIKPAITKEELLSLRAFMNQVFVDRTLLQYIALIVQQTRTSKAVYLGASPRASVAMLQASKAYALLQGRDFVTPEDIKFVAPYVLQHRLILTAEAEMEGYSPVKVTQRLIDKVEVPKLEHHHHHH”: “soluble”.

Turning to “DKFFIWGKRIDYNALKTTLIKKAQDENLLHFTPKISLVEDGFIRSISLGSDLTRPFSLIVDDKGLYIDPNKASKLEELLQNEIFDENMLNRAKNIIKILLENRFSKYNGLKHEDLKINAKIGQKIILIPAQVEDDASMILGGFGLSTLDLLKEVRAKNQDAYIIFKPHPDVLSGNRVGLKDETLILEFCDEIVKDCSIDSAIKIADEIHTITSTSGFDALLRAKKVFTYGMPFYAGWGLTKDKYRCERRIRKLSLEELVAGALIIYPRY”, the “soluble on expression in E. coli” value is given as “not soluble”. The same measure for “MNLLETVEQDTMPTHYKQMTQVEMIARVTEIKAQLGENLFIPCHHYQKDEVVPFADAIGDSLQLAQIAAQNKKAKHIVFCGVHFMAETADMLTTSEQIVTLPDMRAGCSMADMADIHQLTNAWPKLQTLFGDTILPVTYINSTAAIKSFVGEHGGTTVTSSNATKIVSWALEQKERIFFLPDQHLGRNTAFELGIPLEHMAIWNPIKNELEYEGNLDDCKVILWKGYCSVHQHFTVKNIENIRKNHPNMRIIVHPECTHEVVSLADDSGSTKKIVTEINNAAPGTEWAVGTEANLVGRIIQENPDKKIVSLNPFMCPCMTMNRIDLPHLLWTLEAIQNGEKRNQIKVDEQTTKFALKALERMLQLS”: “not soluble”; for “MAHHHHHHSLRMTQAKTYKVSRDETQHGKDSEHHLIAGYNSSMRLWHNEEPSDTADKTPRSHEYETLGYVISGQVELTVDGQTLTLSAGDSYRVPKGAEHVFRVTETLTAVEVTTPATNKEG”: “soluble”; for “MLSANRDCAFGRVHDFAGIRNAGDFRDKVPMHTYAQLQPWIERAQHESGAVLTTRPPLFFERSSGNSALQKLIPYTPEFLAQLQGSLTVWLADMYRQVPEISHGSGYWSMSPPLQQPAVSANGIPVGSVSDLQYLQGSAIAGLAGTLLIPDLAHDVVHWRRQTLLALVADADLSFISVWSPTFLTSLLQPLFDTERQTCAWLEAMLPASRKLALRHARAQGVFTELWPRLAAVSCWMDGPSHGYAVQLAALFPQARWLPKGLFATEGVVSVPFGEGQGCPLAIGSHYLEFVGDDGLPRGARSLRMGETAQVLLTTGAGLYRYVLGDRVRMVGNHAGTPRVAFVGRSASACDLVGEKLDEQLVEGVLAQCIDSADSACLIPDSRNTPPHYVALVSTSAVTPGQVLANSIETVLQGSFHYAHARTLGQLGPLRVRFVSGGAQTLAALLQRAAEATGVRAGDVKPRALISRLDTANALLAITEEFECPHL”: “not soluble”.

Take “YIKMISNAKRSILIQTPYFIPDASLLDALRIACLSGIDVNIMIPNKPDHAFVYWATLSYIGDLLKAGATVYIYDNGFIHAKTIVVDDEIASVGTANIDVRSFRLNFEVNAFIYDITIAKKLVSTFKEDLLVSRKFTYEEYLQRPLWIR”: the “soluble on expression in E. coli” value is “not soluble”. The same measure for “MSLPMLQVALDNQTMDSAYETTRLIAEEVDIIEVGTILCVGEGVRAVRDLKALYPHKIVLADAKIADAGKILSRMCFEANADWVTVICCADINTAKGALDVAKEFNGDVQIELTGYWTWEQAQQWRDAGIGQVVYARSRDAQAAGVAWGEADITAIKRLSDMGFKVTVTGGLALEDLPLFKGIPIHVFIAGRSIRDAASPVEAARQFKRSIAELWG”: “soluble”; for “MFSPDTNSEFYDDFYTKYNTNMAPTTSTFNAQPRLSLDSGLGLTNDSFYSTDLNETHLMDISAGNASTSFQSQPPPQLESSPPTKWARIRTPPNRKKKISHEGPNQEALPPGFNLFSPPSRKKIKTAFSSPPPKSMKTPDSLRKSIRISSPSPFKVTFSKTPLKLSNNENVTGIHIGRSGTYYNKQVTGSASKRCLLPSKPDGFTFLGSPGNSDVLDFPLQTTFEGFGDLDTPAKINAALEVNNDDSMDYYQYAGMIETSSSLATYTNSTGPLVENHARNLKSVPISRTASRNLMKISRKSVEEPVPEPQAVHVEPVIEKPTKISAKKEKEQKKSAAKEAALKEAKEKEMRIWKLAPFETPKKEVPLYSGRWLVISTGRTLAQQELFSDAKSFFKANPPPAPRAPQAPELASGPRRIPTIQRVTLFKHRYRSPRD”: “not soluble”; for “MGSDKIHHHHHHMTEDEAITQLRRFVAALESGSRRNANDAAFALLAGNPPLGDRWQSIAHVMQTNGEYSAAHLAMARFAAHRADPNARFAQAAMLAQTGQLEEAWKVMGSVPFGVPSVSGHHYIRGTIAVNLGHIEDAEKHLLAAIEAEPALGQAMLSLAAARKRKAGDPIGDRILSAEPRMEGAPPLERAHFHYAAGRVHFDRREPDEAFRHFSAGAELVRGWRSYDAAADARDAAECRQGFDRDFVDKINNLVTLDTSQPIFVTGLPRSGTTLVEQILVSHSAVSGGEELGRMGVVRRDLTSLSAKGLSDYLQAGGNADDLAALYLHLGQERFGKEGRFVDKALNTSRFTGLIAALLPHAPIVWLRRDPADCAFSAYRTYFINGLDWSWNLEDIATHFALEDQLFHHWSRMFPDRILAVDYQQLVQEPQAQIRRILAHCNLEEEPQVFRPHETQRVVSTASVMQVREPINTGAVGAAGAYRLHLAPFVDRYEALSAAT”: “not soluble”. The same measure for “MGSDKIHHHHHHMTPIPFYVPVGNECELFETAWQRRLPLLLKGPTGCGKTRFVTHMAARLQRPLFTVSCHDDLTAADLTGRFLIKGGETVWVDGPLTRAIREGGICYLDEIVEARKDVTVVLHPLTDDRRMLPLERTNEILHAPDTFMLVVSYNPGYQNILKSLKPSTRQRFVALSFNFPPPEIELEIIASESGLARDRCTALVNLATRLRLLKDVDLEESVSTRLLVYCATLMAAGLDPYQAAQAALVEPLSDETEVQQGLLELIHATFG”: “not soluble”.

On to “MGSDKIHHHHHHMTFRALPSVDRLIRAVRSDGADMPHELVREAARAVLNEARTSISAGHPPPDLSTLVAAVQARLRADVTPSLRPLINATGVIIQTNLGRAPLSAAACAAMQEVGSGYSNLEYDLAQGERGSRHVHLESLLVQLTGAEAALVVNNNAAAVYLVLIAMAAGREVIVSRGQAVEIGGGFRIPDVLRASGALLIEVGTTNRTYARDYTAAITERTALILRVHTSNFRLIGFVHEPPLAELTAVAHTHGIPLLDDLGSGTLIDTRQFDLPPEPTVQESVAAGADLVTFSGDKLLGGPQAGIIVGRRELIARLRRHPLARALRVDKCTIAGLTATLHSYLRGTALREIPVWQLISTPLSALQARAERIAGALRAAGIPAQMVDCASAIGGGSLPGATQPSAGVALPPVGCGATVLAHRLRMANPPVITRIVDDQVLCDLRSVFPHEDTTLINVVREVWQ”, for which the “soluble on expression in E. coli” value is reported as “not soluble”.

As to “MASYKQNLPPSALIKQQVNVADKKSKAEVQRDRQLEEDRKAGTAPAMVDVQTGRDINPHIPMFISQNPWYVPSEGPTLKHQRPHEEREKKMTQIHEWYQKGTTGKSATKFRKGACENCGAMGHQKRDCFDRPRKSNAKETNDNIAEDDYVQPNLTLGFDAKRDRWNGYDPSTHKQVIEDYEHLEEARKVVREHEMKEGEVEPATTEDGAPKDEDMYAEDADMAGVSVDMDSRTRITVRNLRIREDTAKYLYNLAENSPYYDPKSRSMRENPFAGVAGKELEAARFSGDNFVRYSGEVTAANEAQVFAWQATRGGVYAHSIAEPTKLEALKKEYEKEKSTLKNETQKELLDKYGGGEHMERPADELLLAQTESYIEYNRKGKVIKGKEKVAISSRFKEDIYPQNHTSVFGSFWREGRWGYKCCHQFVKNSYCTGKQGIEAETSAAKGTTTSNEEIFKVPKLVEKTEVKEEKEKEDSIKDEVAEENSDNDNDEEKEKVSEKSISPSPPSDDEEKEKEREKERLIEKERRERDQRRRDKKREKRERKKAKLGKRKRRHRDSDDESDPSSGSGSESDSDEEMRKAMKKAKREKAEGMKAAREGDRGRKYNTDYSNTAPNEKEMEAYRVTSVHSADPMAAYMNSKFEKKHTK”, the “soluble on expression in E. coli” value is recorded as “not soluble”. The same measure for “MQPERYVWAKYFWEQARDANGVARRHLGDTTRNNGAPTVGSPFVALCGIDVTPHPEDTDTARGTCFAPACMVCTTLFARATGWSAGAIGNLIQTFQWTNNDVRQLGLALGMTASQTRRQIEQWTQEADKVNKARHTAKQQKAAGR”: “not soluble”. With “MKHLLLASLLGSAMAMSSLVMAADTDLKTLEAAAKAEGAVNSLGMPDDWANWGGIWKDLETKYGLKHMDTDMSSAQEIAKFDAEKDNASGDIGDVGAAFGPIAVAKGVTQPYKPTTWEQIPDWAKDKDGHWALAYTGTIAFIVNKNLLHGSEIPKSWADLKTGKYKVSIGDVSTAAQATNGVLAAAIAMKGDESNIEPGLALFTDLAKQKRLSLANPTIQTIEKGEIEVGVVWDFNGLNYKAKMAKPDDYVVLIPSDGSVVSGYTTIINKYAKHPNAAKLAREYTFSDAGQINLAKGNARPIRVEHIKLPDDVKAQLLPHEQYLNAKPIKDADAWEKTSKALPQKWNEQVIIEMN”, the “soluble on expression in E. coli” value is “not soluble”.
